Assay results reported in paper doi:10.1101/2020.06.21.163824.
pKd: −log10 of the molar value.

Columns and labels:
[1] = target: recombinant human TNFα (soluble human TNFα, residues 85-233, C-terminal His tag) (human) (UniProt P01375); experiment: ELISA
[2] = target: rhTNFα labeled in the amine groups (NT-650, NHS-coupling) (human) (UniProt P01375); experiment: MST
[3] = target: Adalimumab labeled with NT-647 in the thiol groups (Cys-coupling) (human); experiment: MST

pKd [1]	OD50 (antagonist concentration at half-maximal OD), rhTNFα coated at 1,25 µg/ml [1] [nM]	OD50 (antagonist concentration at half-maximal OD), rhTNFα coated at 2,5 µg/ml [1] [nM]	KD of the first phase (Adalimumab 30.5 pM to 7.8 nM) [2] [pM]	KD of the second phase (Adalimumab 1.95 to 1 µM) [2] [µM]	pKd [3]	Substance
8.88	0.641	0.622	100	0.021	–	Adalimumab (Humira) (antibody)
–	–	–	–	–	7.53	recombinant human TNFα (soluble human TNFα, residues 85-233, C-terminal His tag) (from UniProt P01375 85-233) (ligand)
